Source: PMC2817709, “A Novel High-Affinity Sucrose Transporter Is Required for Virulence of the Plant Pathogen Ustilago maydis” (PLoS Biology, 2010)

Legend:
[1] = system: OC[C@H]1O[C@@](CO)(O[C@H]2O[C@H](CO)[C@@H](O)[C@H](O)[C@H]2O)[C@@H](O)[C@@H]1O; assay: cells, lysate or membranes; conditions: pH 5.0, 50 mM Na-phosphate, 29°C, H+ symport, labelled compound
Srt1 = molecular target: T1, Srt1 (Mycosarcoma maydis, UniProt A0A0D1E1N5); assay: competition with […]-sucrose uptake in srt1-expressing S. cerevisiae; assay type: cell-based; conditions: 10 mM competitor (100-fold excess) against 0.1 mM 14C-sucrose; pH 5.0, 29°C
T1 construct: gene UMAG_02374; full-length ORF, 546 residues, 12 predicted TMDs, untagged in vector NEV-E; expressed in invertase-deficient S. cerevisiae SEY2102
T1 sequence (A0A0D1E1N5 entry or part of it): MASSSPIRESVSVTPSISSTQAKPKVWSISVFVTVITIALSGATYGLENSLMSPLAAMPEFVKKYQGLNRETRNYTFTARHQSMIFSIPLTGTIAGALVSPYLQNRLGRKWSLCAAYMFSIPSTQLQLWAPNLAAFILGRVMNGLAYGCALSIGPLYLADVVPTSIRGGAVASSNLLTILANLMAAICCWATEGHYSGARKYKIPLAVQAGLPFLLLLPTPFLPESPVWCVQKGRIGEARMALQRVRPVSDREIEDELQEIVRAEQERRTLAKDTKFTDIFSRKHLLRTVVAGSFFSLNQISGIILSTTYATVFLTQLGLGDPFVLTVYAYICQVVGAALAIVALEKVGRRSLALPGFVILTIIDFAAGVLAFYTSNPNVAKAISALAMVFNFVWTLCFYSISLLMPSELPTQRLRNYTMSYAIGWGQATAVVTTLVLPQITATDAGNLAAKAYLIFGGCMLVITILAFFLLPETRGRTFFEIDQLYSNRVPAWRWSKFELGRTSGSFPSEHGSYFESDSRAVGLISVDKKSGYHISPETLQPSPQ

Row | Compound | Km [1] [µM] | inhibition of sucrose uptake (Srt1)
1 | Srt1 (Mycosarcoma maydis) | 26 ± 4.3 | 
2 | OC[C@H]1O[C@H](OC[C@H]2O[C@H](O[C@]3(CO)O[C@H](CO)[C@@H](O)[C@@H]3O)[C@H](O)[C@@H](O)[C@@H]2O)[C@H](O)[C@@H](O)[C@H]1O [raffinose] |  | raffinose was the only alternative compound that caused a minor inhibition of sucrose uptake
